From US20250042970A1 (AURINIA PHARMACEUTICALS, published 2025)

T1: FLAG-tagged cynomolgous APRIL (cynomolgus monkey, UniProt A0ACM8R0G4 110-250 (rhesus entry))
T1 construct: FLAG-tagged, expressed with TPA signal peptide; also called cyAPRIL
T1 sequence: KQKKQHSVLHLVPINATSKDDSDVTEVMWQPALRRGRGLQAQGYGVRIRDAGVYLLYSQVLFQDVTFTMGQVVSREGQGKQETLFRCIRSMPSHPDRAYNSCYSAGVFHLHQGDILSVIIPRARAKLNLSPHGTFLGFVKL


Tests used:
FLAG-tagged human BAFF = target: T2, FLAG-tagged human BAFF (human, UniProt Q9Y275 134-285, limits assumed); experiment: BIACORE SPR; NB = No binding
T2 construct: used in BIACORE (Ex. 9) and KINEXA (Ex. 11); also called huBAFF
Procedure: (§1) For human BAFF, cynomolgus monkey APRIL, and mouse APRIL measurements, mouse monoclonal antibody (IgG1) anti-FLAG M2 (Sigma Aldrich, Cat. No. F1804) was immobilized on CM3 sensor chips (GE Healthcare, Cat. No. BR-1005-41) according to the manufacturer's protocol. Antibody was diluted to 30 μg/ml in immobilization buffer (10 mM pH 5±0.20; GE Healthcare; GE Healthcare, Catalog No. BR-1003-51). […] Unreacted sites were quenched with 35 μl of 1M ethanolamine-HCl, pH 8.5 (GE Healthcare, GE Healthcare, Cat. No. BR-1000-50). This procedure typically yielded 3,000-4,000 response units (RU) of coupled antibody.
(§2) The fusion polypeptides were diluted in HBS-EP buffer and flowed over ligand-coated sensor chips. The variant BCMA-Ig and surrogate control fusion proteins were injected at three concentrations (1.5 nM, 15 nM, and 150 nM at 30 μl/min for 2 minutes per association phase) in a single binding cycle, followed by a 20 minute incubation with HBS-EP buffer containing no protein at the same flow rate. A similar protocol was followed for Z-TACI-Ig, except that the injections were at 4.5 nM, 45 nM, and 450 nM.
(§3) Using available information from the structures and published literature, several residues in BAv8-10 were targeted for substitution with conserved as well as non-conserved residues and their effect on BAFF and APRIL binding was assessed by BIACORE.

[1] = target: T1, FLAG-tagged cynomolgous APRIL; experiment: BIACORE SPR; NB = No binding
Procedure: as §1, §2, §3

BAv66-Ig = target: T3, BAv66-Ig (human, UniProt P01859-1 99-326 = IgG part); experiment: BIACORE SPR
T3 construct: domain: Fc; also called Variant BAv66-Ig
Text: as §1, with “The standard kinetic assay measures binding kinetics of trimeric ligand (e.g., human BAFF, cynomolgus monkey APRIL, mouse BAFF, or mouse APRIL) coated on sensor chips and dimeric analytes (e.g., variant BCMA-Ig fusion proteins) in the mobile phase. […] For” for “For”
as §2
(§4) The analyses described above were performed on protein preparations of representative variant BCMA ECD-Ig fusion polypeptides, as well as the Z-TACI-Ig and [S40G]huBCMA ECD-Ig control fusion polypeptides, and the data is presented in Table 1.

Variant BAv1-12-Ig = target: T4, Variant BAv1-12-Ig (human, UniProt P01859-1 99-326 = IgG part); experiment: BIACORE SPR
T4 construct: domain: Fc; also called Variant 1-12-Ig
Text: as §1, with “The standard kinetic assay measures binding kinetics of trimeric ligand (e.g., human BAFF, cynomolgus monkey APRIL, mouse BAFF, or mouse APRIL) coated on sensor chips and dimeric analytes (e.g., variant BCMA-Ig fusion proteins) in the mobile phase. […] For” for “For”
as §2, §4

Variant BAv3-10-Ig = target: T5, Variant BAv3-10-Ig (human, UniProt P01859-1 99-326 = IgG part); experiment: BIACORE SPR
T5 construct: domain: Fc; also called Variant 3-10-Ig; BAv3-10-PIg18
Text: as §1, with “The standard kinetic assay measures binding kinetics of trimeric ligand (e.g., human BAFF, cynomolgus monkey APRIL, mouse BAFF, or mouse APRIL) coated on sensor chips and dimeric analytes (e.g., variant BCMA-Ig fusion proteins) in the mobile phase. […] For” for “For”
as §2, §4

Variant BAv8-9-Ig = target: T6, Variant BAv8-9-Ig (human, UniProt P01859-1 99-326 = IgG part); experiment: BIACORE SPR
T6 construct: domain: Fc; also called Variant 8-9-Ig; BAv8-9-PIg18
Text: as §1, with “The standard kinetic assay measures binding kinetics of trimeric ligand (e.g., human BAFF, cynomolgus monkey APRIL, mouse BAFF, or mouse APRIL) coated on sensor chips and dimeric analytes (e.g., variant BCMA-Ig fusion proteins) in the mobile phase. […] For” for “For”
as §2, §4

Variant BAv8-10-Ig = target: T7, Variant BAv8-10-Ig (human, UniProt P01859-1 99-326 = IgG part); experiment: BIACORE SPR
T7 construct: domain: Fc; also called Variant 8-10-Ig; BAv8-10-PIg18
Text: as §1, with “The standard kinetic assay measures binding kinetics of trimeric ligand (e.g., human BAFF, cynomolgus monkey APRIL, mouse BAFF, or mouse APRIL) coated on sensor chips and dimeric analytes (e.g., variant BCMA-Ig fusion proteins) in the mobile phase. […] For” for “For”
as §2, §4

Variant BAv9-1-Ig = target: T8, Variant BAv9-1-Ig (human, UniProt P01859-1 99-326 = IgG part); experiment: BIACORE SPR
T8 construct: domain: Fc; also called Variant 9-1-Ig; BAv9-1-pIg18
Text: as §1, with “The standard kinetic assay measures binding kinetics of trimeric ligand (e.g., human BAFF, cynomolgus monkey APRIL, mouse BAFF, or mouse APRIL) coated on sensor chips and dimeric analytes (e.g., variant BCMA-Ig fusion proteins) in the mobile phase. […] For” for “For”
as §2, §4

Variant BAv9-5-Ig = target: T9, Variant BAv9-5-Ig (human, UniProt P01859-1 99-326 = IgG part); experiment: BIACORE SPR
T9 construct: domain: Fc; also called Variant 9-5-Ig; BAv9-5-PIg18
Text: as §1, with “The standard kinetic assay measures binding kinetics of trimeric ligand (e.g., human BAFF, cynomolgus monkey APRIL, mouse BAFF, or mouse APRIL) coated on sensor chips and dimeric analytes (e.g., variant BCMA-Ig fusion proteins) in the mobile phase. […] For” for “For”
as §2, §4

Variant BAv11-6-Ig = target: T10, Variant BAv11-6-Ig (human, UniProt P01859-1 99-326 = IgG part); experiment: BIACORE SPR
T10 construct: domain: Fc; also called Variant 11-6-Ig; BAv11-6-PIg18
Text: as §1, with “The standard kinetic assay measures binding kinetics of trimeric ligand (e.g., human BAFF, cynomolgus monkey APRIL, mouse BAFF, or mouse APRIL) coated on sensor chips and dimeric analytes (e.g., variant BCMA-Ig fusion proteins) in the mobile phase. […] For” for “For”
as §2, §4

Variant 50238475-Ig = target: T11, Variant 50238475-Ig (human, UniProt P01859-1 99-326 = IgG part); experiment: BIACORE SPR
T11 construct: domain: Fc; also called Parent 9; Variant 50238475-PIg18
Text: as §1, with “The standard kinetic assay measures binding kinetics of trimeric ligand (e.g., human BAFF, cynomolgus monkey APRIL, mouse BAFF, or mouse APRIL) coated on sensor chips and dimeric analytes (e.g., variant BCMA-Ig fusion proteins) in the mobile phase. […] For” for “For”
as §2, §4

T7 sequence (P01859 other isoform, or with tags, fused parts or gaps mutant limits assumed): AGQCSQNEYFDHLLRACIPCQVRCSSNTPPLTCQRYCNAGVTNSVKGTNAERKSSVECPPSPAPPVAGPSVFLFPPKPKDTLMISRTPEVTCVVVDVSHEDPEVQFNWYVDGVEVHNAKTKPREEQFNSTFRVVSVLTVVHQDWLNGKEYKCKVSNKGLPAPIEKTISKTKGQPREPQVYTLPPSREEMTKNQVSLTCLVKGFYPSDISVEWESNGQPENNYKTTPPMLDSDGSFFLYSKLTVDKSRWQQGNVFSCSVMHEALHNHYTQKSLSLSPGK
T3 sequence (P01859 other isoform, or with tags, fused parts or gaps limits assumed): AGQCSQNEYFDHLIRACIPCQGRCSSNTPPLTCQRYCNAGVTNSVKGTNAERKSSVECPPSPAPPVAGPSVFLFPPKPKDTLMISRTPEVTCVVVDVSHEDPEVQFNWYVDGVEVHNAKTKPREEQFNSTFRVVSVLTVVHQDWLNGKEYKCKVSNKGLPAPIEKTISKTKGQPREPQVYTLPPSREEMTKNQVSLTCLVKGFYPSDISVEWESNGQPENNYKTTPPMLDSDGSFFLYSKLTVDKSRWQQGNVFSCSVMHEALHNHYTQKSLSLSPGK
T10 sequence (P01859 other isoform, or with tags, fused parts or gaps mutant limits assumed): as the sequence (P01859 other isoform, or with tags, fused parts or gaps limits assumed) above, with H12R, I14L, G22V counted along it
T4 sequence (P01859 other isoform, or with tags, fused parts or gaps mutant limits assumed): as the sequence (P01859 other isoform, or with tags, fused parts or gaps limits assumed) above, with H12R, I14V, R15N, G22L counted along it
T9 sequence (P01859 other isoform, or with tags, fused parts or gaps mutant limits assumed): as the sequence (P01859 other isoform, or with tags, fused parts or gaps limits assumed) above, with H12R, I14V, G22L counted along it
T6 sequence (P01859 other isoform, or with tags, fused parts or gaps mutant limits assumed): as the sequence (P01859 other isoform, or with tags, fused parts or gaps limits assumed) above, with I14L, G22L counted along it
T8 sequence (P01859 other isoform, or with tags, fused parts or gaps mutant limits assumed): as the sequence (P01859 other isoform, or with tags, fused parts or gaps limits assumed) above, with G22L counted along it
T11 sequence (P01859 other isoform, or with tags, fused parts or gaps mutant limits assumed): as the sequence (P01859 other isoform, or with tags, fused parts or gaps limits assumed) above, with F10Y, P19S, G22I, T28N, L31P, T32I counted along it
T5 sequence (P01859 other isoform, or with tags, fused parts or gaps mutant limits assumed): as the sequence (P01859 other isoform, or with tags, fused parts or gaps limits assumed) above, with H12R, G22L counted along it

Binder | binding result (FLAG-tagged human BAFF) | binding result [1] | Kd (BAv66-Ig) | Kd (Variant BAv1-12-Ig) | Kd (Variant BAv3-10-Ig) | Kd (Variant BAv8-9-Ig) | Kd (Variant BAv8-10-Ig) | Kd (Variant BAv9-1-Ig) | Kd (Variant BAv9-5-Ig) | Kd (Variant BAv11-6-Ig) | Kd (Variant 50238475-Ig)
AGQCSQNEYFDSLVRACQPCQVRCSSNTPPLTCQRYCNAGVTNSVKGTNA (Fc fusion, not shown: PIg18: human IgG2 Fc, Ser at Fc positions 4, 5, 11 (native Cys)) [BAv67-Ig] | no binding (tested: 150 nM) | no binding (tested: 150 nM) |  |  |  |  |  |  |  |  | 
AGQCSQNEYFDHLVRACQPCQLRCSSNTPPLTCQRYCNAGVTNSVKGTNA (Fc fusion, not shown: PIg18: human IgG2 Fc, Ser at Fc positions 4, 5, 11 (native Cys)) [BAv69-Ig] | no binding (tested: 150 nM) | no binding (tested: 150 nM) |  |  |  |  |  |  |  |  | 
6HIS-tagged murine BAFF (ligand, mouse, UniProt Q9WU72 127-309, looked up, also called mBAFF; muBAFF) AFQGPEETEQDVDLSAPPAPCLPGCRHSQHDDNGMNLRNIIQDCLQLIADSDTPTIRKGTYTFVPWLLSFKRGNALEEKENKIVVRQTGYFFIYSQVLYTDPIFAMGHVIQRKKVHVFGDELSLVTLFRCIQNMPKTLPNNSCYSAGIARLEEGDEIQLAIPRENAQISRNGDDTFFGALKLL |  |  | 0.0623 nM | 0.0339 nM | 0.0149 nM | 0.0149 nM | 0.0171 nM | 0.015 nM | 0.0216 nM | 0.0181 nM | 0.0264 nM
